Source: publication PMC6749071, “Identification of Lysine Histidine Transporter 2 as an 1-Aminocyclopropane Carboxylic Acid Transporter in Arabidopsis thaliana by Transgenic Complementation Approach” (Frontiers in Plant Science, 2019)

B1: LHT2 (Arabidopsis thaliana) (protein)
chain: MGNSEMSASEVAAAKQKNVDDWLPITSSRNAKWWYSAFHNVTAMVGAGVLSLPYAMSNLGWGPGVTIMVMSWIITLYTLWQMVEMHEIVPGKRLDRYHELGQHAFGEKLGLWIVVPQQLIVEVGVDIVYMVTGGASLKKVHQLVCPDCKEIRTTFWIMIFASVHFVISHLPNFNSISIISLAAAVMSLTYSTIAWAASVHKGVHPDVDYSPRASTDVGKVFNFLNALGDVAFAYAGHNVVLEIQATIPSTPEMPSKVPMWRGVIVAYIVVAICYFPVAFLGYYIFGNSVDDNILITLEKPIWLIAMANMFVVIHVIGSYQIFAMPVFDMLETVLVKKMNFNPSFKLRFITRSLYVAFTMIVAICVPFFGGLLGFFGGFAFAPTTYYLPCIMWLVLKKPKRFGLSWTANWFCIIVGVLLTILAPIGGLRTIIINAKTYKFFS
notes: cDNA in pGEM-HE, cRNA injected into Xenopus laevis oocytes
B2: LHT1 (Arabidopsis thaliana) (protein)
chain: MVAQAPHDDHQDDEKLAAARQKEIEDWLPITSSRNAKWWYSAFHNVTAMVGAGVLGLPYAMSQLGWGPGIAVLVLSWVITLYTLWQMVEMHEMVPGKRFDRYHELGQHAFGEKLGLYIVVPQQLIVEIGVCIVYMVTGGKSLKKFHELVCDDCKPIKLTYFIMIFASVHFVLSHLPNFNSISGVSLAAAVMSLSYSTIAWASSASKGVQEDVQYGYKAKTTAGTVFNFFSGLGDVAFAYAGHNVVLEIQATIPSTPEKPSKGPMWRGVIVAYIVVALCYFPVALVGYYIFGNGVEDNILMSLKKPAWLIATANIFVVIHVIGSYQIYAMPVFDMMETLLVKKLNFRPTTTLRFFVRNFYVAATMFVGMTFPFFGGLLAFFGGFAFAPTTYFLPCVIWLAIYKPKKYSLSWWANWVCIVFGLFLMVLSPIGGLRTIVIQAKGYKFYS
notes: as for B1

Substrate: NC1(C(=O)O)CC1
Test: two-electrode voltage clamp, inward current in Xenopus oocytes
Assay type: cell-based, Arabidopsis thaliana
Conditions: pH 5.6, -80 mV, room temperature, Michaelis-Menten fit

Protein | K0.5
B1 | 59.1 ± 6.6 mM
B2 | 60.9 ± 8.2 mM
